Experimental findings from publication PMC5624926 are described below.

Assay [1] deals with dCD22_(20–687) (human) (UniProt P20273). Description: BLI; Octet RED96; CD22_(20–687) forms loaded on Ni-NTA biosensors; Fab in solution 500 to 62.5 nM; 1x PBS pH 7.4, 0.002% Tween, 0.01% BSA; 1:1 fit; triplicate.
Assay [2] deals with CD22_(20–687)F (human) (UniProt P20273). The assay is described as above.
The target of assay [3] is dCD22_(20–687) (human) (UniProt P20273). Put plainly: ITC; Auto-ITC200; 5 μM CD22 in the cell, 50 μM Fab in the syringe; 35 °C; triplicate. (In general: In ITC the heat of successive injections is recorded.)
Assay [4] concerns the target CD22_(20–687)F (human) (UniProt P20273). The description is as above.

One may read the Kd as the equilibrium constant for the complex coming apart. Low values mean a tighter complex, high ones a looser complex.

B1: epratuzumab Fab (Fab, V domains shown)
VH: QVQLVQSGAEVKKPGSSVKVSCKASGYTFTSYWLHWVRQAPGQGLEWIGYINPRNDYTEYNQNFKDKATITADESTNTAYMELSSLRSEDTAFYFCARRDITTFYWGQGTTVTVSS
VL: DIQLTQSPSSLSASVGDRVTMSCKSSQSVLYSANHKNYLAWYQQKPGKAPKLLIYWASTRESGVPSRFSGSGSGTDFTLTISSLQPEDIATYYCHQYLSSWTFGGGTKLEIK
In the case of B1, the Kd stood at 24 nM in assay [1], 327 nM in assay [2], 58 nM in assay [3] and 188 nM in assay [4].
